Measurements taken from WO2011147762A2.

Legend:
[1] = molecular target: ED-B fibronectin antigen protein (recombinant), bound to CNBr activated sepharose 4B (UniProt P02751); test: ED-B sepharose column, % of total radioactivity bound; Study A; methionine 10 mg/mL; day 7
[2] = molecular target: ED-B fibronectin antigen protein (recombinant), bound to CNBr activated sepharose 4B (UniProt P02751); test: ED-B sepharose column, % of total radioactivity bound; Study A; inositol 10 mg/mL; day 3
[3] = molecular target: ED-B fibronectin antigen protein (recombinant), bound to CNBr activated sepharose 4B (UniProt P02751); test: ED-B sepharose column, % of total radioactivity bound; Study A; inositol 10 mg/mL; day 0
[4] = molecular target: ED-B fibronectin antigen protein (recombinant), bound to CNBr activated sepharose 4B (UniProt P02751); test: ED-B sepharose column, % of total radioactivity bound; Study A; sodium thiosulfate 5 mg/mL; day 0
[5] = molecular target: ED-B fibronectin antigen protein (recombinant), bound to CNBr activated sepharose 4B (UniProt P02751); test: ED-B sepharose column, % of total radioactivity bound; Study B3; no-excipient control (PBS); day 1
[6] = molecular target: ED-B fibronectin antigen protein (recombinant), bound to CNBr activated sepharose 4B (UniProt P02751); test: ED-B sepharose column, % of total radioactivity bound; Study A; sodium thiosulfate 25 mg/mL; day 1
[7] = molecular target: ED-B fibronectin antigen protein (recombinant), bound to CNBr activated sepharose 4B (UniProt P02751); test: ED-B sepharose column, % of total radioactivity bound; Study A; maltose 10 mg/mL; day 1
[8] = molecular target: ED-B fibronectin antigen protein (recombinant), bound to CNBr activated sepharose 4B (UniProt P02751); test: ED-B sepharose column, % of total radioactivity bound; Study B3; ascorbic acid 25 mg/mL; day 2
[9] = molecular target: ED-B fibronectin antigen protein (recombinant), bound to CNBr activated sepharose 4B (UniProt P02751); test: ED-B sepharose column, % of total radioactivity bound; Study B3; ascorbic acid 25 mg/mL; day 1
[10] = molecular target: ED-B fibronectin antigen protein (recombinant), bound to CNBr activated sepharose 4B (UniProt P02751); test: ED-B sepharose column, % of total radioactivity bound; Study A; methionine 25 mg/mL; day 5
[11] = molecular target: ED-B fibronectin antigen protein (recombinant), bound to CNBr activated sepharose 4B (UniProt P02751); test: ED-B sepharose column, % of total radioactivity bound; Study A; sodium thiosulfate 50 mg/mL; day 1
[12] = molecular target: ED-B fibronectin antigen protein (recombinant), bound to CNBr activated sepharose 4B (UniProt P02751); test: ED-B sepharose column, % of total radioactivity bound; Study A; inositol 50 mg/mL; day 3
[13] = molecular target: ED-B fibronectin antigen protein (recombinant), bound to CNBr activated sepharose 4B (UniProt P02751); test: ED-B sepharose column, % of total radioactivity bound; Study A; sodium thiosulfate 25 mg/mL; day 7
[14] = molecular target: ED-B fibronectin antigen protein (recombinant), bound to CNBr activated sepharose 4B (UniProt P02751); test: ED-B sepharose column, % of total radioactivity bound; Study A; inositol 50 mg/mL; day 5
[15] = molecular target: ED-B fibronectin antigen protein (recombinant), bound to CNBr activated sepharose 4B (UniProt P02751); test: ED-B sepharose column, % of total radioactivity bound; Study A; sodium thiosulfate 25 mg/mL; day 3
[16] = molecular target: ED-B fibronectin antigen protein (recombinant), bound to CNBr activated sepharose 4B (UniProt P02751); test: ED-B sepharose column, % of total radioactivity bound; Study A; sodium thiosulfate 5 mg/mL; day 3
[17] = molecular target: ED-B fibronectin antigen protein (recombinant), bound to CNBr activated sepharose 4B (UniProt P02751); test: ED-B sepharose column, % of total radioactivity bound; Study B3; thioglycerol 10 mg/mL; day 1
[18] = molecular target: ED-B fibronectin antigen protein (recombinant), bound to CNBr activated sepharose 4B (UniProt P02751); test: ED-B sepharose column, % of total radioactivity bound; Study A; methionine 5 mg/mL; day 0
[19] = molecular target: ED-B fibronectin antigen protein (recombinant), bound to CNBr activated sepharose 4B (UniProt P02751); test: ED-B sepharose column, % of total radioactivity bound; Study A; maltose 25 mg/mL; day 0
[20] = molecular target: ED-B fibronectin antigen protein (recombinant), bound to CNBr activated sepharose 4B (UniProt P02751); test: ED-B sepharose column, % of total radioactivity bound; Study A; sodium thiosulfate 50 mg/mL; day 0
[21] = molecular target: ED-B fibronectin antigen protein (recombinant), bound to CNBr activated sepharose 4B (UniProt P02751); test: ED-B sepharose column, % of total radioactivity bound; Study A; methionine 10 mg/mL; day 1
[22] = molecular target: ED-B fibronectin antigen protein (recombinant), bound to CNBr activated sepharose 4B (UniProt P02751); test: ED-B sepharose column, % of total radioactivity bound; Study A; maltose 10 mg/mL; day 0
[23] = molecular target: ED-B fibronectin antigen protein (recombinant), bound to CNBr activated sepharose 4B (UniProt P02751); test: ED-B sepharose column, % of total radioactivity bound; Study A; trolox 5 mg/mL; day 1
[24] = molecular target: ED-B fibronectin antigen protein (recombinant), bound to CNBr activated sepharose 4B (UniProt P02751); test: ED-B sepharose column, % of total radioactivity bound; Study B3; ascorbic acid 25 mg/mL; day 0
[25] = molecular target: ED-B fibronectin antigen protein (recombinant), bound to CNBr activated sepharose 4B (UniProt P02751); test: ED-B sepharose column, % of total radioactivity bound; Study A; methionine 25 mg/mL; day 0
[26] = molecular target: ED-B fibronectin antigen protein (recombinant), bound to CNBr activated sepharose 4B (UniProt P02751); test: ED-B sepharose column, % of total radioactivity bound; Study A; inositol 25 mg/mL; day 3
[27] = molecular target: ED-B fibronectin antigen protein (recombinant), bound to CNBr activated sepharose 4B (UniProt P02751); test: ED-B sepharose column, % of total radioactivity bound; Study A; sodium thiosulfate 10 mg/mL; day 3
[28] = molecular target: ED-B fibronectin antigen protein (recombinant), bound to CNBr activated sepharose 4B (UniProt P02751); test: ED-B sepharose column, % of total radioactivity bound; Study A; methionine 10 mg/mL; day 0

Chain of UniProt P02751 (P02751 1266-1356 limits assumed): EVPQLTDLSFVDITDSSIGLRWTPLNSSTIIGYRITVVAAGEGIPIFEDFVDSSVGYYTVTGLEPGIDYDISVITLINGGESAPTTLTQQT
Chain of 131I L19-SIP (radioiodinated L19 SIP homodimer) (chain): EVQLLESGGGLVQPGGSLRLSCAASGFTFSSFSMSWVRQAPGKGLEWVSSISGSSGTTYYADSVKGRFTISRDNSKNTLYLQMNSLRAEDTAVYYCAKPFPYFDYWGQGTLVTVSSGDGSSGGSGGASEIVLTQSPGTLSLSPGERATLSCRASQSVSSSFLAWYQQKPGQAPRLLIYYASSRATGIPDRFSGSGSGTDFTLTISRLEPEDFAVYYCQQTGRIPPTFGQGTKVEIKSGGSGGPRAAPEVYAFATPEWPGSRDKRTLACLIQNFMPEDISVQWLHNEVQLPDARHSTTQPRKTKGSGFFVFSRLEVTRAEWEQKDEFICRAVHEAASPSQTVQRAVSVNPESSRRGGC
Chain of 131I L19-SIP (radioiodinated L19 SIP homodimer) (chain): as above

Substance “131I L19-SIP (radioiodinated L19 SIP homodimer)” has an Immunoreactivity (%) [1] of 54.8%, an Immunoreactivity (%) [2] of 70.4% and an Immunoreactivity (%) [3] of 93.4%. For the same substance, the Immunoreactivity (%) [4] was 97.3%, the Immunoreactivity (IR) (%) [5] was 73.2% and the Immunoreactivity (%) [6] was 95%. It also gave an Immunoreactivity (%) [7] of 85.4%, an Immunoreactivity (IR) (%) [8] of 75% and an Immunoreactivity (IR) (%) [9] of 78%. It also gave an Immunoreactivity (%) [10] of 48.6%, an Immunoreactivity (%) [11] of 96.9% and an Immunoreactivity (%) [12] of 71.6%. For the same substance, the Immunoreactivity (%) [13] was 78.5%, the Immunoreactivity (%) [14] was 63.7% and the Immunoreactivity (%) [15] was 92.3%. For the same substance, the Immunoreactivity (%) [16] was 83.5%, the Immunoreactivity (IR) (%) [17] was 60.7% and the Immunoreactivity (%) [18] was 96.7%. The Immunoreactivity (%) [19] was 93.6%, the Immunoreactivity (%) [20] was 95.8% and the Immunoreactivity (%) [21] was 88.1%. It also gave an Immunoreactivity (%) [22] of 92.8%, an Immunoreactivity (%) [23] of 84.8% and an Immunoreactivity (IR) (%) [24] of 74.1%. The Immunoreactivity (%) [25] was 97.2%, the Immunoreactivity (%) [26] was 68.5% and the Immunoreactivity (%) [27] was 88.5%. The Immunoreactivity (%) [28] was 96.6%.
